One experiment concerns the target T1, Peptide 1 (peanut).
T1 construct: 20-mer of Ara h 2, overlap of 12 with its neighbours; also called linear Ara h 2 peptide 1
T1 peptide: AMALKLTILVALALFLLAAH
Kind of experiment: competition ELISA, peptide in solution vs coated Ara h 2. Here is the method: (§1) A competition ELISA was used to evaluate binding of exemplary anti-peanut antibodies of the present invention to linear Ara h 2 epitopes. Serial dilutions of linear Ara h 2 epitopes (100 μM down to 0.19 nM; peptides with a length of 20 amino acids and an overlap of 12 amino acids between the peptides) were pre-incubated with exemplary anti-peanut antibodies ([…]) for 1 hour at room temperature. The pre-incubated antibody-epitope mixtures were subsequently incubated on plates coated with full length Ara h 2 (coating overnight at 4° C. with 0.05 μg/ml Ara h 2 in PBS, followed by wash out and blocking with 2% BSA in PBS). The plates were subsequently washed and binding of MAbs to Ara h 2 was detected HRP-conjugated goat anti human Fc-gamma-specific antibody (Jackson ImmunoResearch, West Grove, Pa., USA) followed by measurement of the HRP activity using a tetramethylbenzidine substrate solution (TMB, Sigma-Aldrich Chemie GmbH, Buchs, Switzerland). As may be seen from Table 5, exemplary anti-peanut allergen antibody 32B10 binds to different linear Ara h 2 epitopes than 12G10 and 37D5.

In a further experiment the target is T2, Peptide 17 (peanut).
T2 construct: also called linear Ara h 2 peptide 17
T2 peptide: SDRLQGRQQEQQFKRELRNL
The description is as above. As for the experimental part: as §1

Another experiment deals with T3, Peptide 19 (peanut).
T3 construct: also called linear Ara h 2 peptide 19
T3 peptide: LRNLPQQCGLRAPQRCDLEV
The description is as above. As for the experimental part: as §1

For another experiment, the target named is T4, Peptide 4 (peanut).
T4 construct: also called linear Ara h 2 peptide 4
T4 peptide: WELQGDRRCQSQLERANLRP
Described as above. Here is the method: as §1

The target of another experiment is T5, Peptide 16 (peanut).
T5 construct: also called linear Ara h 2 peptide 16
T5 peptide: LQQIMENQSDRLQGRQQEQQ
The description is as above. Here is the method:
as §1

A further experiment deals with T6, Peptide 3 (peanut).
T6 construct: also called linear Ara h 2 peptide 3
T6 peptide: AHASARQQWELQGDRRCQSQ
The experiment is described as above. As for the experimental part:
as §1

The target of another experiment is T7, Peptide 15 (peanut).
T7 construct: also called linear Ara h 2 peptide 15
T7 peptide: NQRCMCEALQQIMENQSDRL
The experiment is described as above. As for the experimental part: as §1

The target in another experiment is T8, Peptide 14 (peanut).
T8 construct: also called linear Ara h 2 peptide 14
T8 peptide: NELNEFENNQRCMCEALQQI
Described as above. As for the experimental part:
as §1

For another experiment, the target named is T9, Peptide 6 (peanut).
T9 construct: also called linear Ara h 2 peptide 6
T9 peptide: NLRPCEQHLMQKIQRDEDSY
The experiment is described as above. Here is the method:
as §1

The next experiment addresses T10, nAra h 1 (peanut, UniProt P43238 85-626).
T10 construct: Bought natural allergen; also called naturally extracted Ara h 1
T10 sequence (looked up): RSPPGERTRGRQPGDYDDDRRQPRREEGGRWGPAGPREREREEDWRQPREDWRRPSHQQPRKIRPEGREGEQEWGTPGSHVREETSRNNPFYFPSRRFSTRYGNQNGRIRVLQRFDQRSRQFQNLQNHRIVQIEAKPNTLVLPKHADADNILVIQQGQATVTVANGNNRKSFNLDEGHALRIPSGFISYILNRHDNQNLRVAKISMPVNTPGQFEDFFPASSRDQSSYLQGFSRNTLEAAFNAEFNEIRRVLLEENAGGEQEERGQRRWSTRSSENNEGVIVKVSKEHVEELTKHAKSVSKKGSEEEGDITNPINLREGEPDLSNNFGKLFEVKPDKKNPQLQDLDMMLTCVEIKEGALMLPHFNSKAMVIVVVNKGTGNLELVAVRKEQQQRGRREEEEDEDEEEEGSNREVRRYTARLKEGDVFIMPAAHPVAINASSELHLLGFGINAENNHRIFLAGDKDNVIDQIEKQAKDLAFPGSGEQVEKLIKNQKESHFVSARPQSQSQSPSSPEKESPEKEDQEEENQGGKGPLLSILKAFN
Kind of experiment: ELISA, antigen-coated plate. As for the experimental part: (§2) EC50 binding of exemplary anti-peanut antibodies of the present invention to peanut allergens or peanut extract, was determined by ELISA. Serial dilutions of MAbs (from 1000 ng/ml down to 0.0169 ng/ml) were incubated for 2 hours with antigen-coated plates (coating overnight at 4° C. or 1 h at 37° C. with 1 μg/ml antigen in PBS, followed by wash out and blocking with 2% BSA in PBS). The plates were subsequently washed and binding of MAbs was detected with anti-human HRP-conjugated Fc-gamma-specific secondary antibody (Jackson ImmunoResearch, West Grove, Pa., USA). Concentrations of MAb resulting in half of maximal binding to respective antigens (EC50, ng/ml) were calculated using GraphPad Prism 5 software on sigmoidal dose-response curves (variable slope, 4 parameters) obtained by plotting the log of the concentration versus OD450 nm measurements; for the results see FIG. 3 and table 2.
Background: ELISA stands for enzyme-linked immunosorbent assay.

The target in another experiment is T11, nBet v 1 (UniProt P15494 2-160).
T11 sequence (looked up): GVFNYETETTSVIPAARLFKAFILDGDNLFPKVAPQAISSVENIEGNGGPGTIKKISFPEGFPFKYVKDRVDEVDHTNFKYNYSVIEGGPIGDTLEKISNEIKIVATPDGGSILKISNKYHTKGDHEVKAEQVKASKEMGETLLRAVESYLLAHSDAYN
In words: ELISA, antigen-coated plate. Here is the method:
as §2

For the next experiment, the target named is T12, nAra h 2 (peanut, UniProt Q6PSU2 22-172).
T12 construct: Bought natural allergen; also called naturally extracted Ara h 2
T12 sequence (looked up): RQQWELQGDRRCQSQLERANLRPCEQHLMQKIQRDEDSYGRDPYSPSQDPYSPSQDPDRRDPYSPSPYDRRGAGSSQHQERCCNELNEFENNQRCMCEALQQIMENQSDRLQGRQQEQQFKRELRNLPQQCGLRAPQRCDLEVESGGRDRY
Kind of experiment: ELISA, antigen-coated plate. Here is the method: as §2

The target of another experiment is T13, nAra h 6 (peanut, UniProt Q647G9 22-145).
T13 construct: Bought natural allergen; also called naturally extracted Ara h 6
T13 sequence (looked up): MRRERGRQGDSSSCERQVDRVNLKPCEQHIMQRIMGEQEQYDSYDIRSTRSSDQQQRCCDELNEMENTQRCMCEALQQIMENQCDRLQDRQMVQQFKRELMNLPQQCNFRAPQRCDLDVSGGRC
In words: ELISA, antigen-coated plate. As for the experimental part:
as §2

B1: h2F8 (antibody, V domains shown)
VH: EVQLVESGGGLVKPGGSLRLSCAASGFIFSDYNMNWVRQAPGKGLEWVSSITRSSRTIYYADSVKGRFTISRDNAKNSLHLQMNSLRDADTAVYYCAREDFDVSTGPYYMDVWGNGTTVIVSS
VL: EIVLTQSPGTLSLSPGERATLSCRASQSVSNMFLVWYQQKPGQAPRLLMYGASTRATDIPDRFSGSGSGTDFTLTISRLEPEDFAVYYCQQNGNSPYTFGQGTKLEIK
notes: Recombinant human IgG; also called hMAb 2F8
The term EC50 denotes the concentration giving half of the maximal effect. For B1, the binding result with Peptide 1, with Peptide 17, with Peptide 19, with Peptide 4, in the experiment with Peptide 16 and with Peptide 3 was “no binding (tested: 100 µM)” in each case. Besides, the binding result was “no binding (tested: 100 µM)” in the experiment with Peptide 15, “no binding (tested: 100 µM)” in the experiment with Peptide 14, “no binding (tested: 100 µM)” with Peptide 6 and “no binding (tested: 1000 ng/ml)” with nBet v 1. The EC50 with nAra h 1 is 8.5 ng/mL; in the experiment with nAra h 2 it was 5.6 ng/mL; with nAra h 6 it was 3.4 ng/mL.

B2: h7G6 (antibody, V domains shown)
VH: QVQLVESGGGVVQPGRSLRLSCAASGIAFNDYTMHWVRRSPDKGLEWVAAISYGGTNKYYADSVKGRFTISRDSSKNTLFLQMDSLRVEDTAVYYCARDSGYRSLLHWGQGTLVTVSS
VL: EIVLTQSPLSLPVTPGEPASISCRSSQSLVHRNGYNYLDWYLQKPGQSPQLLIYMASKRASGVPDRFSGSGSGTEFTLKISRVEAEDVGIYYCMQALQTWTFGQGTKVEVN
notes: Recombinant human IgG; also called hMAb 7G6
As to B2, the binding result in the experiment with Peptide 1, with Peptide 17, with Peptide 19, with Peptide 4, in the experiment with Peptide 16 and in the experiment with Peptide 3 was “no binding (tested: 100 µM)” in each case. The binding result in the experiment with Peptide 15 was “no binding (tested: 100 µM)”; in the experiment with Peptide 14 it was “no binding (tested: 100 µM)”; in the experiment with Peptide 6, “no binding (tested: 100 µM)”; with nBet v 1, “no binding (tested: 1000 ng/ml)”. Moreover, the EC50 with nAra h 1 turned out to be 1.9 ng/mL; with nAra h 2, 4.7 ng/mL; in the experiment with nAra h 6, 2.6 ng/mL.

(Values after patent publication US20200199207A1 (MABYLON, published 2020).)
